Laboratory results taken from patent publication US20210338733A1.

Biological target: CD19 on CD19 positive target cell lines (UniProt P15391)
Assay: cell-based or functional assay

Chain of CD19 on CD19 positive target cell lines (P15391 20-556 limits assumed): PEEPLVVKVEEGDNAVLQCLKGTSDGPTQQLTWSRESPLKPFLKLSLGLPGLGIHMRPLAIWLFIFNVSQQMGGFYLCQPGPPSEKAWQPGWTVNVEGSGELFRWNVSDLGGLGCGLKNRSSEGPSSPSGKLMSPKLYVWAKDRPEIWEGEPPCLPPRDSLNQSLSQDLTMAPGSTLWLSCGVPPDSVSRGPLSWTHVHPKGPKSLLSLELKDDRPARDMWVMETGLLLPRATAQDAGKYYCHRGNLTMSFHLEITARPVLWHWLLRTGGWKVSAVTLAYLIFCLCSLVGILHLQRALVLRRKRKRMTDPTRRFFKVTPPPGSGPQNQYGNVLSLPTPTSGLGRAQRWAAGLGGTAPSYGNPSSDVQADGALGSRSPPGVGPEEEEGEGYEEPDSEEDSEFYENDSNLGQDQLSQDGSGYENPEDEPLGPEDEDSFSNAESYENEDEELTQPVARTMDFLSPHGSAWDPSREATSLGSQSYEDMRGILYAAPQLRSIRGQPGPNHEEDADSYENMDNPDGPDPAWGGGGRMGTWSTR

CD40L expression by CD4+ CAR T cells (flow cytometry, 24 hours of coincubation) (fold of the upregulation by CART-TnMUC1): 2
Substance: CD19 CAR as expressed on CART-19 cells (anti-CD19 FMC63 scFv, human CD8α hinge and transmembrane, human 4-1BB and CD3ζ) (receptor)
